Experimental data as given in patent publication US8680041B2, “Genetic variations associated with tumors” (Genentech, Inc., priority 2006, dated 2014).

How the values were obtained:
[1] = target: T1, p110alpha E545K (Homo sapiens, UniProt P42336, E545K); experiment: Co-immunoprecipitation of HA-tagged p85α with p110α in transfected Cos 7 cells; assay type: binding; parameters: key: “yes” (“Y”); “no” (“N”); details: HA bead immunoprecipitation, blot
T1 construct: expressed in transfected cells; host or cells: Cos 7
Procedure: (§1) The ability of p85α mutants to bind to p110α was assessed. Cos 7 cells were transiently transfected with nucleic acid encoding N-terminally HA-tagged p85α protein (either wild-type or mutant, as indicated in Table 2 below) and with nucleic acid encoding p110α (either wild-type or mutant, as indicated in Table 2 below). Proteins were immunoprecipitated using HA beads, separated by SDS-PAGE, transferred to nitrocellulose, and detected using anti-HA and anti-p110α antibodies. Binding of p85α to p110α is indicated as either “yes” (“Y”) or “no” (“N”) in Table 2. In the second row of Table 2, the term “p85 Dominant Negative” refers to a known dominant negative form of p85α in which the p110α binding domain from amino acids 479-513 is deleted. The remaining mutant forms of p85α listed in the first column of Table 2 were discovered pursuant to this study. In the header row of Table 2, the terms “p110alpha E545K” and “p110alpha H1047R” refer to two known mutational “hot spots” in p110α which result in constitutively active p110α.

[2] = target: T2, p110alpha H1047R (Homo sapiens, UniProt P42336, H1047R); experiment: as above; assay type: binding; parameters: key: “yes” (“Y”); “no” (“N”); details: HA bead immunoprecipitation, blot
T2 construct: expressed in transfected cells; host or cells: Cos 7
Procedure: as §1

[3] = target: T3, p110alpha WT (Homo sapiens, UniProt P42336); experiment: as above; assay type: binding; parameters: key: “yes” (“Y”); “no” (“N”); details: HA bead immunoprecipitation, blot
T3 construct: expressed in transfected cells; host or cells: Cos 7
Procedure: as §1

[4] = test system: wild-type p110α; experiment: Fluorescence polarization assay of p110α activity in p85α/p110α complexes, phosphoinositide as substrate; assay type: biochemical; details: for p110α activity of the complex compared with the wild type complex (in words): absence of peptide; for Activity of p110α in the complex, No peptide: no phosphotyrosine peptide; for Activity of p110α in the complex, No peptide / Activity of p110α in the complex, Peptide (1 uM): normalized to wild-type complex in the absence of peptide; for Activity of p110α in the complex, Peptide (1 uM): phosphotyrosine (IRS-1) peptide 1 uM
Procedure: The ability of p85α mutant proteins to form active complexes with p110α was also assessed. Complexes consisting of p85α protein (either wild-type or mutant, as indicated in Table 3 below) and wild-type p110α were expressed in baculovirus. Activity of p110α in the complexes was assessed using a fluorescence polarization assay with phosphoinositide as the substrate. The assay was conducted in the absence or presence of a phosphotyrosine peptide (referred to as “peptide” in Table 3 below). That peptide corresponds to a phosphotyrosine-containing region of Insulin Receptor Substrate-1 that binds to the SH2 region of p85α and enhances the activity of the wild-type p85α/p110α complex. See Miled et al., Science, 317:239-242 (2007). The p85α mutants tested in Table 3 have mutations in their C-terminal SH2 domains. The activities were normalized to the value obtained for p110α in the wild-type complex in the absence of peptide.

T3 sequence (P42336 whole entry): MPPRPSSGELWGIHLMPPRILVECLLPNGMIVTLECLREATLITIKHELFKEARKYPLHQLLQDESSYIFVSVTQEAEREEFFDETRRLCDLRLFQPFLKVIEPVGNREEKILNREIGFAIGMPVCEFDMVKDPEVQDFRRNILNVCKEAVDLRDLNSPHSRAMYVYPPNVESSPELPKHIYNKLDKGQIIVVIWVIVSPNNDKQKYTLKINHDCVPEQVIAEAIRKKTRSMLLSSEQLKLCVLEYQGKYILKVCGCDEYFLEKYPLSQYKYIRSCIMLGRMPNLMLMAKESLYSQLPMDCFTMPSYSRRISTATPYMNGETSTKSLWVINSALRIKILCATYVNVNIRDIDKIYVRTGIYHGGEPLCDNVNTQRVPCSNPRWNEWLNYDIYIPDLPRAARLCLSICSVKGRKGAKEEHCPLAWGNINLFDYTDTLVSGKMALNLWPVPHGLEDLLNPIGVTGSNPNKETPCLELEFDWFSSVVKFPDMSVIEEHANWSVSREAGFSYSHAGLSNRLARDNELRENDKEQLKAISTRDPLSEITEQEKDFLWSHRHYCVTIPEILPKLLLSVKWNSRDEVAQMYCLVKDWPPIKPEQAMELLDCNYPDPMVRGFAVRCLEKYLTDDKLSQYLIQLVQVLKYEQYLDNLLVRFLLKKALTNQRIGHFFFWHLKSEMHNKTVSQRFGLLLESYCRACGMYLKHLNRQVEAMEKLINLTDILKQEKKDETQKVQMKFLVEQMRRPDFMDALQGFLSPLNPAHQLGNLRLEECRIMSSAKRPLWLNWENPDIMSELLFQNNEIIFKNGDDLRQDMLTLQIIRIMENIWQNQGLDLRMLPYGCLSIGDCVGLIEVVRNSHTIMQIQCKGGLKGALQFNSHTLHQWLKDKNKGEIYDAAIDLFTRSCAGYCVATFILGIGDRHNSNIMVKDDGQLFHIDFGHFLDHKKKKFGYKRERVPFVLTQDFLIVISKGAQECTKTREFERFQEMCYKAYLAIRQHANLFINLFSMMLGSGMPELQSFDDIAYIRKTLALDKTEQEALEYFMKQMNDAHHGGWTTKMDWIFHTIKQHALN
T1 sequence (P42336 whole entry E545K): as the sequence (P42336 whole entry) above, with E545K counted along it
T2 sequence (P42336 whole entry H1047R): as the sequence (P42336 whole entry) above, with H1047R counted along it

| Molecule | Binding of p85α to p110α [1] | Binding of p85α to p110α [2] | Binding of p85α to p110α [3] | p110α activity of the complex compared with the wild type complex (in words) [4] | Activity of p110α in the complex, No peptide [4] | Activity of p110α in the complex, Peptide (1 uM) [4] |
| --- | --- | --- | --- | --- | --- | --- |
| p85 A682V: mutant form of p85α discovered pursuant to this study | Y | Y | Y |  |  |  |
| p85 Dominant Negative: known dominant negative form of p85α in which the p110α binding domain from amino acids 479-513 is deleted [reference compound] | N | N | N |  |  |  |
| p85 E666K: mutant form of p85α discovered pursuant to this study | Y | Y | Y | comparable to that seen in the wild type complex | 0.92 | 2.54 |
| p85 L449S: mutant form of p85α discovered pursuant to this study | Y | Y | Y |  |  |  |
| p85 N285H: mutant form of p85α discovered pursuant to this study | Y | Y | Y |  |  |  |
| p85 N527K: mutant form of p85α discovered pursuant to this study | Y | Y | Y | decreased p110α activity | 0.75 | 1.92 |
| p85 N564D: mutant form of p85α discovered pursuant to this study | Y | Y | Y | increased p110α activity | 1.71 | 2.47 |
| p85 R348stop: mutant form of p85α discovered pursuant to this study; truncated | N | N | N |  |  |  |
| p85 R543I: mutant form of p85α discovered pursuant to this study | Y | Y | Y |  |  |  |
| p85 R574I: mutant form of p85α discovered pursuant to this study | Y | Y | Y |  |  |  |
| p85 R642stop: mutant form of p85α discovered pursuant to this study | Y | Y | Y |  |  |  |
| p85 R649Q: mutant form of p85α discovered pursuant to this study | Y | Y | Y | decreased p110α activity | 0.45 | 1.7 |
| p85 WT: wild-type p85α, regulatory subunit of PI3K encoded by PIK3R1 [reference compound] |  |  |  |  | 1 | 2.77 |
| p85 R162stop: mutant form of p85α discovered pursuant to this study; truncated (protein, left off: small tags and cut ends, mutant form of p85α discovered pursuant to this study; truncated) MSAEGYQYRALYDYKKEREEDIDLHLGDILTVNKGSLVALGFSDGQEARPEEIGWLNGYNETTGERGDFPGTYVEYIGRKKISPPTPKPRPPRPLPVAPGSSKTEADVEQQALTLPDLAEQFAPPDIAPPLLIKLVEAIEKKGLECSTLYRTQSSSNLAEL | N | N | N |  |  |  |
